According to doi:10.1101/2020.10.20.346569 (bioRxiv, 2020):
Like-named read-outs stand apart in the source and are kept apart here. One block for each binder: values may come before it.

Legend:
GST-GSK3β [1] = target: T1, GST-GSK3β (UniProt P49841 1-420); assay: pull-down
GST-GSK3β [2] = target: T1, GST-GSK3β; assay: pull-down; remark: listed apart in the source

T1 sequence (P49841 whole entry): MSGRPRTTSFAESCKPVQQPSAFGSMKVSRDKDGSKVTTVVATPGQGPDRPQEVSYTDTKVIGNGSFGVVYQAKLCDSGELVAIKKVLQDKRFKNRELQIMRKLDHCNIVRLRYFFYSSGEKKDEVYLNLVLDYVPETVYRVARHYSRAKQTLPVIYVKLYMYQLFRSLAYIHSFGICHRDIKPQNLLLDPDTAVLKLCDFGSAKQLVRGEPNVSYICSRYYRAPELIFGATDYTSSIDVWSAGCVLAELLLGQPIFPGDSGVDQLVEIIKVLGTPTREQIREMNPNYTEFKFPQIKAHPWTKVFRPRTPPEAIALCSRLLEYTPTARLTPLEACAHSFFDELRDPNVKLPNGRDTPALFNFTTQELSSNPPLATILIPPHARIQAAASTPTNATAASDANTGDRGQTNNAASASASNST

binding result (GST-GSK3β [1]): binds
Binder: RLLFQNLWKPRL [peptide e2-I]

binding result (GST-GSK3β [2]): binds
B1: His-eIF4E2 (natural protein, UniProt O60573 1-245, looked up)
chain: MNNKFDALKDDDSGDHDQNEENSTQKDGEKEKTERDKNQSSSKRKAVVPGPAEHPLQYNYTFWYSRRTPGRPTSSQSYEQNIKQIGTFASVEQFWRFYSHMVRPGDLTGHSDFHLFKEGIKPMWEDDANKNGGKWIIRLRKGLASRCWENLILAMLGEQFMVGEEICGAVVSVRFQEDIISIWNKTASDQATTARIRDTLRRVLNLPPNTIMEYKTHTDSIKMPGRLGPQRLLFQNLWKPRLNVP
